According to patent US20250353930A1 (EXCELLERGY, published 2025):

T1: polyclonal human IgE (human)
T1 construct: Used at 10 nM to sensitise Hoxb8 mast cells overnight; also called surface IgE on Hoxb8 mast cells
T1 constant: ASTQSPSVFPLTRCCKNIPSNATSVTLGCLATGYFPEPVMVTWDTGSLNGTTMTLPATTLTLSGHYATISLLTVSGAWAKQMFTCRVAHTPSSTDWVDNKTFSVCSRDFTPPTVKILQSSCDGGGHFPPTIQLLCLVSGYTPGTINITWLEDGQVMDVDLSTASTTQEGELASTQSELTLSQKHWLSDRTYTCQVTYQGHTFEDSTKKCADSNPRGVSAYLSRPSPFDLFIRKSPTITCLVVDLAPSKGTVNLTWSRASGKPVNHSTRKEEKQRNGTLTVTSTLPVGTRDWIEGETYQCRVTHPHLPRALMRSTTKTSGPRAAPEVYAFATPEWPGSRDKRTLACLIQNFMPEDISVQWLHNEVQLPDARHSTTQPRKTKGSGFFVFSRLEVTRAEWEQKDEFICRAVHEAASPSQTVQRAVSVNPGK

B1: C4 (antibody, human IgG1, kappa)
heavy: not shown
light: DIQLTQSPSSLSASVGDRVTITCRASKSVDADGDSYMNWYQAKPGRHPKLLIYAASYLESGVPSRFSGSGSGTDFTLTISSLQPEDFATYYCQQSHEDPYTFGQGTKVEIKGGRTVAAPSVFIFPPSDEQLKSGTASVVCLLNNFYPREAKVQWKVDNALQSGNSQESVTEQDSKDSTYSLSSTLTLSKADYEKHKVYACEVTHQGLSSPVTKSFNRGEC
notes: Whole IgG, comparator; also called Comparator 4; Comparator_4
B2: C5 (antibody, human IgG1, kappa)
heavy: not shown
light: DIQLTQSPSSLSASVGDRVTITCRASKSVDADGDSYMNWYQAKPGRHPKLLIYAASYLESGVPSRFSGSGSGTDFTLTISSLQPEDFATYYCQQSHEDPYTFGQGTKVEIKGRTVAAPSVFIFPPSDEQLKSGTASVVCLLNNFYPREAKVQWKVDNALQSGNSQESVTEQDSKDSTYSLSSTLTLSKADYEKHKVYACEVTHQGLSSPVTKSFNRGEC
notes: Whole IgG, comparator; also called Comparator 5; Comparator_5
B3: C6 (antibody, human IgG1, kappa)
heavy: not shown
light: DIQLTQSPSSLSASVGDRVTITCRASKSVDADGDSYMNWYQAKPGRHPKLLIYAASYLESGVPSRFSGSGSGTDFTLTISSLQPEDFATYYCQQSHEDPYTFGQGTKVEIKRTVAAPSVFIFPPSDEQLKSGTASVVCLLNNFYPREAKVQWKVDNALQSGNSQESVTEQDSKDSTYSLSSTLTLSKADYEKHKVYACEVTHQGLSSPVTKSFNRGEC
notes: Whole IgG, comparator; also called Comparator 6; Comparator_6

Biological target: T1, polyclonal human IgE
Experiment: flow cytometry of surface IgE on Hoxb8 mast cells with human FcεRI, 20 h; dissociation of IgE from FcεRI

IC50 [nM]	Binder
815	B1
1070	B2
2010	B3
